To fix the notation:
B1: Bak [human] / Bak [human] (parent)
chain 1: MASGQGPGPPRQECGEPALPSASEEQVAQDTEEVFRSYVFYRHQQEQEAEGVAAPADPEMVTLPLQPSSTMGQVGRQLAIIGDDINRRYDSEFQTMLQHLQPTAENAYEYFTKIATSLFESGINWGRVVALLGFGYRLALHVYQHGLTGFLGQVTRFVVDFMLHHCIARWIAQRGGWVAALNLGNGPILNVLVVLGVVLLGQFVVRRFFKS
chain 2: B1 chain 1

Variants of B1 are the subject of one test. Kind of test: BiFC (flow cytometry). The conditions noted are these: with Bak [human]; 6 independent experiments (H164A), 8 (WT); read off a plot.
chain 1 H164A: the response (Mean Venus/Mean mRFP) turned out to be 1.8.

The same test, now with this note: with Bak [human]; 6 independent experiments; read off a plot.
For chain 1 H164A, the response (Mean Venus/Mean mRFP) amounted to 1.8.

These data come from PMC10000386.
